This note sets out measurements from IntAct's records for PubMed 12717434.

B1: Multiple coagulation factor deficiency protein 2 (Homo sapiens), Q8NI22 (parent)
chain: MTMRSLLRTPFLCGLLWAFCAPGARAEEPAASFSQPGSMGLDKNTVHDQEHIMEHLEGVINKPEAEMSPQELQLHYFKMHDYDGNNLLDGLELSTAITHVHKEEGSEQAPLMSEDELINIIDGVLRDDDKNNDGYIDYAEFAKSLQ
partner: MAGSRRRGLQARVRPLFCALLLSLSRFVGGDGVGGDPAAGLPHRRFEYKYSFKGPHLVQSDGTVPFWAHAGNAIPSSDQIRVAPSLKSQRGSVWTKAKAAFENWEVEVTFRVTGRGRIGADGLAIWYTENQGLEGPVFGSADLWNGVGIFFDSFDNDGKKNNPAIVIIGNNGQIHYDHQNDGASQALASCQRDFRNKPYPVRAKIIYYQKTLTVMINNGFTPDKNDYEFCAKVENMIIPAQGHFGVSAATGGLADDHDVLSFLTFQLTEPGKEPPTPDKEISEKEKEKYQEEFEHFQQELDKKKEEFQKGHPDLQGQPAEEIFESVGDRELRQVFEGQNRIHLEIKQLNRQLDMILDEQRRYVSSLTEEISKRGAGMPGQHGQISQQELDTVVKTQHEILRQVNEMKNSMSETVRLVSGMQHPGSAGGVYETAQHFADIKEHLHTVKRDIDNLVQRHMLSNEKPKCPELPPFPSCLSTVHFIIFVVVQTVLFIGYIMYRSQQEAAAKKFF

The variants in the assay derive from B1. The note with it: with lman1_chlae LMAN1, Q9TU32.
For MTMRSLLRTPFLCGLLWAFCAPGARAEEPAASFSQPGSMGLDKNTVHDQEHIMEHLEGVINKPEAEMSPQELQLHYFKMHDYDGNNLLDGLELSTAITHVHKEEGSEQAPLMSEDELINIIDGVLRDDDKNNDGYTDYAEFAKSLQ, the “effect of a mutation on the interaction” value is given as “disrupting interaction strength”. For MTMRSLLRTPFLCGLLWAFCAPGARAEEPAASFSQPGSMGLDKNTVHDQEHIMEHLEGVINKPEAEMSPQELQLHYFKMHDYDGNNLLDGLELSTAITHVHKEEGSEQAPLMSEDELINIIDGVLRDDDKNNDGYVDYAEFAKSLQ the value was “decreasing interaction strength”; for MTMRSLLRTPFLCGLLWAFCAPGARAEEPAASFSQPGSMGLDKNTVHDQEHIMEHLEGVINKPEAEMSPQELQLHYFKMHDYDGNNLLDGLELSTAITHVHKEEGSEQAPLMSEDELINIIDGVLRDDEKNNDGYIDYAEFAKSLQ, “disrupting interaction strength”.
